Consider 2 molecules from PMC2581932 (Cell, 2008).

B1: Pyrococcus furiosus HerA (enzyme, UniProt Q8U1P0 1-551, looked up)
chain: MEEFVGIVRGEASFTSYEFSINPSANVSFGEFVVTKNRDGDLVLGTVRHVKNVNWLLSSVKSNFNSLALDIEEYGESLGENEEVVATVRILGKIEGNELVPNRVPIRNGEYVYKASDDLLQMIYGNDGIEIGTLLLRPNVRIKLDVNELVSRHFAVLAVTGAGKSNAVAVIIKGIVEDVGGTVVVLDPHGDYVNLRLPETGIDLVNIIDGKIRIEDLDPEELADLIGISSSAQIQRHFLSLAWETVKHKNQSLGGESLLEALLDLLNEWISRKTIKYWSEKEGRMKSEDLKSERIETIRGIIFRIRRFLRNYGNIVTSENLVAAIKPGMVNVIDLSPLDENQMKVVVGKFLEAVFEKRVEYEMARKRFEKETSKKKRDEYEEIMTEIESKYPALAYPILVIVEEAHIFAPQGEENDAMRIMGRIAREGRKFGVGLGVVSQRPSKLNEDILSQMNTKIILRIVNPRDQDYVLKASEQLSKDLMDDIAGLGKGEAVIVGQAIKLPALVRIYNFKELRGKAGTGQYGGEDIGILDRWNKMKRNMVNSLDIDIDF

The data set “SEC” concerns the molecule itself. Put plainly: SEC. (Size exclusion chromatography separates by hydrodynamic size, large species first.)
The data set “Pyrococcus furiosus HerA” concerns the target B1. Put plainly: SEC.

Regarding B1, in the data set “SEC”, the binding result is “binds”.

B2: Pyrococcus furiosus NurA (enzyme, UniProt Q8U1N8 1-451, looked up)
chain: MRLLSKQSIERITKILLDELENVRENEQIRNIINSWKPLPSPEKSSIYAVDGSRSVSRLSGTVIYFLSALAVGSGKQLRLSYANAIKSNYGTSDQIVRMQMETLENMLGYLAYRKLEGEKRAILMDGTLTGSLVRPPVYPEDIRSLNVMRALIGESDFENLLNEFLEKLRDHYRKVEEHLEKNGNYDSPILTDNVVEKLRKKYIDTKVIAYGSGKVKVKIPRKALGYSPRVIPIEVLESSRGKSVDELLQELDEEKVELYLGKDDIYDALHMTLSYIEYLYSIDKLLEVKNLAYIAKSFYTKTLARTLGVEIVDTALLDAVIRTLIGHEKEGYLEIEHAVVPPKWSFPDFLLSKFRNIEKLIDKGIHLAYVRFEQGDVIYMLQSTTNIEKILPLILHHKAGGYLRPLQLAHHGVKISYKEARHTLEALINALRNRDPALKIFVKYGRSPLE
Take B2: in the data set with Pyrococcus furiosus HerA, the “stoichiometry N” value is 1 to 3 NurA monomers per HerA hexamer.
